Test results: patent US8173771B2, “Humanin receptor or humanin-like polypeptide receptor” (Keio Univeristy, priority 2005, dated 2012)
Blank lines part the entries; values can stand above or below the molecule they belong to.

What was measured:
[1] = molecular target: T1, HN receptor (HNR; CNTF-R/WSX-1/gp130) on F11 cells (Mus musculus, UniProt O70394+O88507); experiment: Immunofluorescence-based binding assay (2): biotin-HN / biotin-HNG binding to F11 cells; conditions: biotin-HN; F11 cells with endogenous HNR or transfected with CNTF-R/WSX-1/gp130
T1 construct: endogenous in cells; host or cells: F11 neurohybrid cells
T1 sequence (O70394 25-623): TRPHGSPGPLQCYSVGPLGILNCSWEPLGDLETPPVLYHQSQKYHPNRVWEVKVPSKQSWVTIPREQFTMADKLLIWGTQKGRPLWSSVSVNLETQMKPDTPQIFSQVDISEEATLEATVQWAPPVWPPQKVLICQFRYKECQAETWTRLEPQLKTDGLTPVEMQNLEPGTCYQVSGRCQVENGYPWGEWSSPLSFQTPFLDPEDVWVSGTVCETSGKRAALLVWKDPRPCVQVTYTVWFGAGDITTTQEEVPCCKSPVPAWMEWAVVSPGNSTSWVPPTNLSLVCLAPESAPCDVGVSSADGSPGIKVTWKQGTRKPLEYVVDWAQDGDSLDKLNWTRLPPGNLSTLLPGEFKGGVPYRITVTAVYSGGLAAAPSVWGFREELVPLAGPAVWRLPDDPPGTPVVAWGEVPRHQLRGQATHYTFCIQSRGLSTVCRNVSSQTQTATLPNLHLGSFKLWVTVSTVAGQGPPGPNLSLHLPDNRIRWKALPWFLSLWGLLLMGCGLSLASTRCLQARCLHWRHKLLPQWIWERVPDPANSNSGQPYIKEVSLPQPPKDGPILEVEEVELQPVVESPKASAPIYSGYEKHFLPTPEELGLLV
T1 sequence (O88507 23-342): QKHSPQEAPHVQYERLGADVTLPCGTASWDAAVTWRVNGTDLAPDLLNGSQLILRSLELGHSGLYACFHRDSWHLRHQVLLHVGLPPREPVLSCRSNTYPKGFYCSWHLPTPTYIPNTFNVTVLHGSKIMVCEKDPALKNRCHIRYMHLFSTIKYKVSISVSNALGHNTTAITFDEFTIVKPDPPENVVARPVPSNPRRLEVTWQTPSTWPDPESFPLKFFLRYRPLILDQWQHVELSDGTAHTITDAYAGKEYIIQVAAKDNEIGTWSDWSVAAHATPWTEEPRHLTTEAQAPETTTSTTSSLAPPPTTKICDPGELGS
T1 sequence (Q00560 23-917 partner): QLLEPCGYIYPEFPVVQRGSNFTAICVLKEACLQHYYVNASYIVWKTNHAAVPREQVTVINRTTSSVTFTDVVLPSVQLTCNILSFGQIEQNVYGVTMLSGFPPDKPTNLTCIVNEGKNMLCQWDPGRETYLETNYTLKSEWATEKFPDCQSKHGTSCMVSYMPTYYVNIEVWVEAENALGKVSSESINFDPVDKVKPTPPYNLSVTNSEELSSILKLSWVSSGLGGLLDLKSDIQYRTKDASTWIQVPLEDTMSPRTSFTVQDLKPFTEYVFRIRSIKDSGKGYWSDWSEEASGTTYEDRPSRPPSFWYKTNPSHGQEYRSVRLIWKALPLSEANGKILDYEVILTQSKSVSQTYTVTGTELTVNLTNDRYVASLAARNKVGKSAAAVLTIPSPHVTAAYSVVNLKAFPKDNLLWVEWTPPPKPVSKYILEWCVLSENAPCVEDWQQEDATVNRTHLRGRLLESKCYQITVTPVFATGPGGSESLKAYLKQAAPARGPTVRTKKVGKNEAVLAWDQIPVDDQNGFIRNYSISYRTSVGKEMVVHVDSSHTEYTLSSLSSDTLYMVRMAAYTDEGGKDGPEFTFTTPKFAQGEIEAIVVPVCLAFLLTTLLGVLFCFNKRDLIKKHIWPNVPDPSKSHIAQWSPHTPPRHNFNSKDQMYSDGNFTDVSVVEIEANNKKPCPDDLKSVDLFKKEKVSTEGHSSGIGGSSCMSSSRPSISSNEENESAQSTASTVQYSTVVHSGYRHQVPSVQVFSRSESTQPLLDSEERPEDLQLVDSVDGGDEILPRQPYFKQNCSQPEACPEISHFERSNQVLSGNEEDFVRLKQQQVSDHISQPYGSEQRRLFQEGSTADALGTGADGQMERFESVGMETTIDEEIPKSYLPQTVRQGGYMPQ
Procedure: A) F11 cells were seeded on 96-well plates coated with poly-L-lysine (7×10^3 cells/well). An indicated amount of biotin-HN or biotin-HNG was added to the cells with or without 10 μM of unlabelled HNG or HNA, followed by a binding assay based on immunofluorescence reaction (2) (left panels). On the other hand, F11 cells were transfected with 0.5 μg of pcDNA3.1/GS-human CNTF-R, pEF1/MycHis-human WSX-1, and 1.0 μg of pCAG-human gp130. At 24 hrs after the transfection, the cells were re-seeded on 96-well plates coated with poly-L-lysine (7×10^3 cells/well). After 36 hrs the re-seeding, an indicated amount of biotin-HN or biotin-HNG was added to the cells with or without 10 μM of unlabeled HNG or HNA, followed by a binding assay based on immunofluorescence reaction (2) (right panels).
B) F11 cells were transfected with 0.5 μg of pRNA-U1.6/Shuttle vector, pRNA-U6.1/Shuttle-WSX-1 siRNA, pRNA-U6.1/Shuttle-CNTF-R siRNA, both pRNA-U6.1/Shuttle-WSX-1 siRNA and pRNA-U6.1/Shuttle-CNTF-R siRNA (0.5 μg each), pRNA-U6.1/Shuttle-FPR2 siRNA or pRNA-U6.1/Shuttle-LIFR siRNA. The total amount of vectors was adjusted to be 1.0 μg by including a backbone vector. At 24 hrs after the transfection, an indicated amount of biotin-HNG was added with or without unlabeled HNG, followed by a binding assay based on immunofluorescence reaction (2) at 72 hrs after the transfection.
E) F11 cells on 6-well plate (7×10^4 cells/well) were transfected with 1.0 μg of pRNA-U6.1/Shuttle vector, pRNA-U6.1/Shuttle-Bax siRNA, or both pRNA-U6.1/Shuttle-WSX-1 siRNA and pRNA-U6.1/Shuttle-CNTF-R siRNA (0.5 μg each). At 72 hrs after the transfection, the cells were added with an indicated amount of biotin-HN with or without unlabeled HN or HNA (100 μM) and subjected to an HN-binding assay based on immunofluorescence.
F11 cells (7×10^4/well in 6-well plates) were replated into 96-well plates (7×10^3 cells/well) at 24 hrs after transfection with indicated amounts of the plasmids encoding mycHis-WSX or V5-CNTF-R, and with PCAG-human gp130 if required. At 36 hrs after transfection, the cells were added with biotin-labeled HN or HNG of indicated concentrations in the presence or the absence of HNG (S14G-HN) or HNA (C8A-HN) of indicated concentrations (Hashimoto et al., 2001 a). After 6 hrs incubation, they were fixed with 4% paraformaldehyde in PBS for 30 min. After washing with PBS, cells were stained with FITC-conjugated avidin (Molecularprobe, Eugene, Oreg., USA). Immunofluorescence intensity was measured (excitation=485 nm, emission=535 nm) with a spectrofluorometer (Wallac1420 ARVOsx Multi Label Counter). Immunohistochemical analysis was done with a laser-scanning, confocal microscope LSM (Carl Zeiss, Germany).

[2] = system: primary cortical neurons (PCNs); experiment: Aβ neurotoxicity in primary cortical neurons, WST-8 / Calcein / LDH; format: cell-based, mouse; conditions: 25 μM Aβ; for inhibition of neurotoxicity by Aβ: cytokine alone, physiological levels (up to 100 ng/ml)
Procedure: B) PCNs were incubated with 25 μM Aβ (upper) in the presence of 10 μg of recombinant soluble human gp130 (lower “+”) or BSA (lower “−”). Cell viability was determined by WST-8 assay (upper) or Calcein fluorescence assay (lower) at 72 hr after the onset of treatment with Aβ.
C) PCNs were incubated with 25 μM Aβ (1-43) in the presence of 1 μg of neutralizing anti-mouse gp130 antibody (RX435) or control IgG. Cell viability and cell mortality were determined by Calcein fluorescence (left panel) and LDH assays (right panel), respectively, at 72 hr after the onset of treatment with Aβ (1-43).
[…] At 72 hr after incubation, the cells were harvested for WST-8 assays or/and Calcein fluorescence assays to show cell viability.
B) The soluble IL-6 receptor-α (sIL-6R) or the soluble CNTF-R (100 ng/ml) were added to the cells as in the above A), followed by the stimulation with its ligand, IL-6 or CNTF (100 ng/ml), respectively to show the effects on the neuronal cell death due to Aβ. The right and left graphs show the cell viabilities determined by WST-8 assays and Calcein fluorescence assays, respectively.
C) The neutralizing antibodies (1 μg) for the mouse gp130, mouse LIFR, mouse IL-11R and rat CNTF-R were added as in the above A), and cell viability was determined by Calcein fluorescence assays after 72 hours.
WST-8 assay was performed at 72 hrs after the treatment.
The primary culture of mouse cortical neurons was prepared as described previously (Sudo et al., 2000). Briefly, primary cortical neurons, obtained from embryonic day 14 (E14) ICR mice were seeded in poly-L-lysine-coated 96 well plates (Sumitomo Bakelite) at 2.5 or 5.0×10^4 cells/well in Neuron Medium (Sumitomo Bakelite) (Hashimoto et al., 2003; Niikura et al., 2004). Purity of neurons by this method was >98%. After 3 days, the culture medium was replaced with DMEM with N2 supplement. On the fourth day in vitro, 25 μM of Aβ (1-42) was added in association with indicated concentrations of HN or cytokines in the presence or the absence of soluble cytokine receptors or neutralizing antibodies. At 72 hrs after the onset of treatment, cell viability was assessed by WST-8 assay and/or Calcein fluorescence assay and cell mortality was assessed by the Trypan blue exclusion assay and LDH assay (Hashimoto et al, 2000, 2001 a b, 2003).

- Kd [1]: 1 to 10 µM
Molecule: CC[C@H](C)[C@H](NC(=O)[C@H](CCC(=O)O)NC(=O)[C@H](CO)NC(=O)[C@@H](NC(=O)[C@H](CC(C)C)NC(=O)[C@H](CC(C)C)NC(=O)[C@H](CC(C)C)NC(=O)[C@H](CC(C)C)NC(=O)[C@H](CS)NC(=O)[C@H](CO)NC(=O)[C@H](Cc1ccccc1)NC(=O)CNC(=O)[C@H](CCCNC(=N)N)NC(=O)[C@@H]1CCCN1C(=O)[C@H](C)NC(=O)[C@@H](N)CCSC)[C@@H](C)O)C(=O)N[C@@H](CC(=O)O)C(=O)N[C@@H](CC(C)C)C(=O)N1CCC[C@H]1C(=O)N[C@H](C(=O)N[C@@H](CCCCN)C(=O)N[C@@H](CCCNC(=N)N)C(=O)N[C@@H](CCCNC(=N)N)C(=O)N[C@@H](C)C(=O)O)C(C)C [HN, Humanin]

B1: OSM: human OncostatinM, recombinant cytokine (protein, UniProt P13725 26-221, looked up)
Oncostatin-M: AAIGSCSKEYRVLLGQLQKQTDLMQDTSRLLDPYIRIQGLDVPKLREHCRERPGAFPSEETLRGLGRRGFLQTLNATLGCVLHRLADLEQRLPKAQDLERSGLNIEDLEKLQMARPNILGLRNNIYCMAQLLDNSDTAEPTKAGRGASQPPTPTPASDAFQRKLEGCRFLHGYHRFMHSVGRVFSKWGESPNRSRR
- inhibition of neurotoxicity by Aβ [2]: did not inhibit

B2: recombinant soluble human gp130: recombinant soluble human gp130 consisting of the extracellular domain of human gp130; dominant-negative form (protein, UniProt P40189 23-619, looked up)
extracellular domain: ELLDPCGYISPESPVVQLHSNFTAVCVLKEKCMDYFHVNANYIVWKTNHFTIPKEQYTIINRTASSVTFTDIASLNIQLTCNILTFGQLEQNVYGITIISGLPPEKPKNLSCIVNEGKKMRCEWDGGRETHLETNFTLKSEWATHKFADCKAKRDTPTSCTVDYSTVYFVNIEVWVEAENALGKVTSDHINFDPVYKVKPNPPHNLSVINSEELSSILKLTWTNPSIKSVIILKYNIQYRTKDASTWSQIPPEDTASTRSSFTVQDLKPFTEYVFRIRCMKEDGKGYWSDWSEEASGITYEDRPSKAPSFWYKIDPSHTQGYRTVQLVWKTLPPFEANGKILDYEVTLTRWKSHLQNYTVNATKLTVNLTNDRYLATLTVRNLVGKSDAAVLTIPACDFQATHPVMDLKAFPKDNMLWVEWTTPRESVKKYILEWCVLSDKAPCITDWQQEDGTVHRTYLRGNLAESKCYLITVTPVYADGPGSPESIKAYLKQAPPSKGPTVRTKKVGKNEAVLEWDQLPVDVQNGFIRNYTIFYRTIIGNETAVNVDSSHTEYTLSSLTSDTLYMVRMAAYTDEGGKDGPEFTFTTPKFAQGEIE
modifications: extracellular domain
notes: recombinant soluble human gp130 consisting of the extracellular domain of human gp130; dominant-negative form
- effect on HN-mediated neuroprotection ([2]; PCNs): complete suppression

B3: IL-11: recombinant cytokine of the IL-6 family (protein, UniProt P47873 22-199, looked up)
Interleukin-11: PGPPAGSPRVSSDPRADLDSAVLLTRSLLADTRQLAAQMRDKFPADGDHSLDSLPTLAMSAGTLGSLQLPGVLTRLRVDLMSYLRHVQWLRRAGGPSLKTLEPELGALQARLERLLRRLQLLMSRLALPQAAPDQPVIPLGPPASAWGSIRAAHAILGGLHLTLDWAVRGLLLLKTRL
- inhibition of neurotoxicity by Aβ [2]: did not inhibit

B4: CT-1: mouse cardiotropin-1, recombinant cytokine (protein, UniProt Q60753 1-203, looked up)
Cardiotrophin-1: MSQREGSLEDHQTDSSISFLPHLEAKIRQTHNLARLLTKYAEQLLEEYVQQQGEPFGLPGFSPPRLPLAGLSGPAPSHAGLPVSERLRQDAAALSVLPALLDAVRRRQAELNPRAPRLLRSLEDAARQVRALGAAVETVLAALGAAARGPGPEPVTVATLFTANSTAGIFSAKVLGFHVCGLYGEWVSRTEGDLGQLVPGGVA
- inhibition of neurotoxicity by Aβ [2]: did not inhibit
